Reference: patent US20160108110A1 (Novartis, published 2016)

What was measured:
Experiment in all cases: peptide array, immobilised linear 15-mers
[1] = target: T1, ANGPTL4-derived peptide P31 (human)
T1 peptide: IQQLFHKVAQQQRHL
Procedure: (§1) The ability of selected antibodies of invention, namely MOR022765 and MOR022770, to bind to linear 15-amino-acid peptides derived from the N-terminal coiled coil domain of human ANGPTL4 was tested. The peptides were immobilized on a glass surface, and the ability of MOR022765 and MOR022770 to bind to the immobilized peptides was evaluated using experimental methods optimized for linear peptide epitope mapping at JPT Peptide Technologies (Berlin, Germany).

[2] = target: T2, ANGPTL4-derived peptide P39 (human)
T2 peptide: LQSQFGLLDHKHLDH
Procedure: as §1

[3] = target: T3, ANGPTL4-derived peptide P42 (human)
T3 peptide: HKHLDHEVAKPARRK
Procedure: as §1

[4] = target: T4, ANGPTL4-derived peptide P13 (human)
T4 construct: printed with S where human ANGPTL4 has C
T4 peptide: TRSQLSALERRLSAS
Procedure: as §1

[5] = target: T5, ANGPTL4-derived peptide P34 (human)
T5 peptide: QQQRHLEKQHLRIQH
Procedure: as §1

[6] = target: T6, ANGPTL4-derived peptide P7 (human)
T6 peptide: LAHGLLQLGQGLREH
Procedure: as §1

[7] = target: T7, ANGPTL4-derived peptide P23 (human)
T7 peptide: APESRVDPEVLHSLQ
Procedure: as §1

[8] = target: T8, ANGPTL4-derived peptide P9 (human)
T8 peptide: QLGQGLREHAERTRS
Procedure: as §1

[9] = target: T9, ANGPTL4-derived peptide P8 (human)
T9 peptide: GLLQLGQGLREHAER
Procedure: as §1

[10] = target: T10, ANGPTL4-derived peptide P10 (human)
T10 peptide: QGLREHAERTRSQLS
Procedure: as §1

[11] = target: T11, ANGPTL4-derived peptide P19 (human)
T11 construct: printed with S where human ANGPTL4 has C
T11 peptide: SQGTEGSTDLPLAPE
Procedure: as §1

[12] = target: T12, ANGPTL4-derived peptide P6 (human)
T12 peptide: MNVLAHGLLQLGQGL
Procedure: as §1

[13] = target: T13, ANGPTL4-derived peptide P1 (human)
T13 construct: linear 15-amino-acid peptide derived from the N-terminal coiled coil domain of human ANGPTL4
T13 peptide: GPVQSKSPRFASWDE
Procedure: as §1

[14] = target: T14, ANGPTL4-derived peptide P12 (human)
T14 peptide: AERTRSQLSALERRL
Procedure: as §1

[15] = target: T15, ANGPTL4-derived peptide P37 (human)
T15 peptide: HLRIQHLQSQFGLLD
Procedure: as §1

[16] = target: T16, ANGPTL4-derived peptide P36 (human)
T16 peptide: EKQHLRIQHLQSQFG
Procedure: as §1

[17] = target: T17, ANGPTL4-derived peptide P17 (human)
T17 construct: printed with S where human ANGPTL4 has C
T17 peptide: SASGSASQGTEGSTD
Procedure: as §1

[18] = target: T18, ANGPTL4-derived peptide P30 (human)
T18 peptide: NSRIQQLFHKVAQQQ
Procedure: as §1

[19] = target: T19, ANGPTL4-derived peptide P25 (human)
T19 peptide: DPEVLHSLQTQLKAQ
Procedure: as §1

[20] = target: T20, ANGPTL4-derived peptide P20 (human)
T20 peptide: TEGSTDLPLAPESRV
Procedure: as §1

[21] = target: T21, ANGPTL4-derived peptide P2 (human)
T21 peptide: QSKSPRFASWDEMNV
Procedure: as §1

[22] = target: T22, ANGPTL4-derived peptide P11 (human)
T22 peptide: REHAERTRSQLSALE
Procedure: as §1

[23] = target: T23, ANGPTL4-derived peptide P4 (human)
T23 peptide: FASWDEMNVLAHGLL
Procedure: as §1

[24] = target: T24, ANGPTL4-derived peptide P35 (human)
T24 peptide: RHLEKQHLRIQHLQS
Procedure: as §1

[25] = target: T25, ANGPTL4-derived peptide P15 (human)
T25 construct: printed with S where human ANGPTL4 has C
T25 peptide: ALERRLSASGSASQG
Procedure: as §1

[26] = target: T26, ANGPTL4-derived peptide P33 (human)
T26 peptide: KVAQQQRHLEKQHLR
Procedure: as §1

[27] = target: T27, ANGPTL4-derived peptide P22 (human)
T27 peptide: LPLAPESRVDPEVLH
Procedure: as §1

[28] = target: T28, ANGPTL4-derived peptide P28 (human)
T28 peptide: TQLKAQNSRIQQLFH
Procedure: as §1

[29] = target: T29, ANGPTL4-derived peptide P24 (human)
T29 peptide: SRVDPEVLHSLQTQL
Procedure: as §1

[30] = target: T30, ANGPTL4-derived peptide P14 (human)
T30 construct: printed with S where human ANGPTL4 has C
T30 peptide: QLSALERRLSASGSA
Procedure: as §1

[31] = target: T31, ANGPTL4-derived peptide P27 (human)
T31 peptide: SLQTQLKAQNSRIQQ
Procedure: as §1

[32] = target: T32, ANGPTL4-derived peptide P38 (human)
T32 peptide: IQHLQSQFGLLDHKH
Procedure: as §1

[33] = target: T33, ANGPTL4-derived peptide P18 (human)
T33 construct: printed with S where human ANGPTL4 has C
T33 peptide: GSASQGTEGSTDLPL
Procedure: as §1

[34] = target: T34, ANGPTL4-derived peptide P29 (human)
T34 peptide: KAQNSRIQQLFHKVA
Procedure: as §1

Measured: binding result

B1: MOR022765 (antibody, human IgG1, lambda, V domains shown)
VH: EVQLVQSGAEVKKPGESLKISCKGSGYSFSTYWISWVRQMPGKGLEWMGIIDPSSSDTRYSPSFQGQVTISADKSISTAYLQWSSLKASDTAMYYCARVYGYVYMDVWGQGTLVTVSS
VL: SYELTQPLSVSVALGQTARITCSGDNLGKKYAYWYQQKPGQAPVLVIYDKTKRPSGIPERFSGSNSGNTATLTISRAQAGDEADYYCASYDWYSSSYVFGGGTKLTVLG
notes: human IgG1
no binding: all assays above
